Data set [1] deals with the molecule itself. Briefly: crystal structure; selenomethionyl Csn2, 2.2 Å, MAD; crystals at 20°C from 150 mM KCl, 4 mM DTT, 100 mM HEPES pH 7.0 with 2.3 M sodium acetate pH 7.0; no calcium added; dimer in the asymmetric unit, tetramer with the symmetry-related dimer.
Data set [2] deals with the molecule itself. Nature of the data set: SEC; analytical, Superdex 200 10/300 GL; 200 mM NaCl, 2 mM DTT, 10 mM Tris-HCl pH 8.0; 0.5 mL of 1.0 mg/mL Csn2; no calcium added. (Size exclusion chromatography separates by hydrodynamic size, large species first.)
Data set [3] addresses T1, Csn2 (Streptococcus pyogenes, UniProt Q99ZV9 1-220).
T1 sequence: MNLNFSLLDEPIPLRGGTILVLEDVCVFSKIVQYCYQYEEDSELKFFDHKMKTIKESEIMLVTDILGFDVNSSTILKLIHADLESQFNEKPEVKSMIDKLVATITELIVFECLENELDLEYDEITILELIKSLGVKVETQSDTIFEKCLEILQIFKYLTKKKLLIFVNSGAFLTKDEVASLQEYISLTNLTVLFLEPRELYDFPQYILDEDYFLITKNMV
Briefly: EMSA; no added metal; DNA:Csn2 tetramer 1:0, 1:1, 1:10; non-specific binding; 50 mM NaCl, 20 mM HEPES pH 7.5, room temperature, 20 min; 150 ng DNA; 10% native Tris-glycine PAGE, ethidium bromide stain. Conditions: protein: recombinant; tags: (His)6-MBP tag removed by TEV protease; chain copies: 4.

Data set [4] has as its target T1, Csn2. Briefly: EMSA; no added metal; DNA:Csn2 tetramer 1:0, 1:1, 1:10; 50 mM NaCl, 20 mM HEPES pH 7.5, room temperature, 20 min; 150 ng DNA; 10% native Tris-glycine PAGE, ethidium bromide stain. The following applies: protein: recombinant; tags: (His)6-MBP tag removed by TEV protease; chain copies: 4. (In EMSA bound probe runs differently from free probe, usually more slowly.)

B1: Selenomethionyl Streptococcus pyogenes Csn2 (natural protein)
chain: MNLNFSLLDEPIPLRGGTILVLEDVCVFSKIVQYCYQYEEDSELKFFDHKMKTIKESEIMLVTDILGFDVNSSTILKLIHADLESQFNEKPEVKSMIDKLVATITELIVFECLENELDLEYDEITILELIKSLGVKVETQSDTIFEKCLEILQIFKYLTKKKLLIFVNSGAFLTKDEVASLQEYISLTNLTVLFLEPRELYDFPQYILDEDYFLITKNMV
modifications: selenomethionine (SeMet labelling)
notes: Csn2, CRISPR-associated protein of the Nmeni subtype (type II-A), Streptococcus pyogenes; same construct as m1, expressed as selenomethionyl protein; residues up to 220 are named for the structure; Same construct as m1 with selenomethionine; Two monomers (A, B) in the asymmetric unit; the tetramer is formed with a symmetry-related dimer; also called SeMet Csn2; selenomethionyl S. pyogenes Csn2; …
In general, stoichiometry N refers to a count of units in the complex or per binding partner. Take B1: the “stoichiometry N” value in data set [1] is 4.

B2: Streptococcus pyogenes Csn2 (native) (natural protein)
chain: MNLNFSLLDEPIPLRGGTILVLEDVCVFSKIVQYCYQYEEDSELKFFDHKMKTIKESEIMLVTDILGFDVNSSTILKLIHADLESQFNEKPEVKSMIDKLVATITELIVFECLENELDLEYDEITILELIKSLGVKVETQSDTIFEKCLEILQIFKYLTKKKLLIFVNSGAFLTKDEVASLQEYISLTNLTVLFLEPRELYDFPQYILDEDYFLITKNMV
notes: Csn2, CRISPR-associated protein of the Nmeni subtype (type II-A), Streptococcus pyogenes; the csn2 gene cloned into pHMGWA; monomeric molecular weight printed as 26.0 kDa; residues up to 220 are named for the structure; also called Native Csn2; source: E. coli BL21 (DE3), purified (HisTrap HP, TEV cleavage, second HisTrap HP, Superdex200); not shown: His6, N-terminal, cleaved; MBP, N-terminal, …
B2: in data set [2], the “stoichiometry N” value worked out at 4.

B3: control DNA 90 bp (ERD1 promoter) (dsDNA)
DNA 1: TCTTAAAACTCCACAAACATTACGGCAGTTAGAATTTAAATTTATCTTGGAATATTGTTTGTATATTATTAACAAATGTAAATTGGTGTA
DNA 2: TACACCAATTTACATTTGTTAATAATATACAAACAATATTCCAAGATAAATTTAAATTCTAACTGCCGTAATGTTTGTGGAGTTTTAAGA
With B3, in the data set with Csn2 [3], the binding result was “binds”.

B4: S. pyogenes CRISPR DNA 90 bp (dsDNA)
DNA 1: TTTTAGACAAAAATAGTCTACGAGGTTTTAGAGCTATGCTGTTTTGAATGGTCCCAAAACTGCGCTGGTTGATTTCTTCTTGCGCTTTTT
DNA 2: AAAAAGCGCAAGAAGAAATCAACCAGCGCAGTTTTGGGACCATTCAAAACAGCATAGCTCTAAAACCTCGTAGACTATTTTTGTCTAAAA
For B4, the binding result in the data set with Csn2 [4] was “binds”.

Values taken from publication PMC3316568, “Crystal Structure of Streptococcus pyogenes Csn2 Reveals Calcium-Dependent Conformational Changes in Its Tertiary and Quaternary Structure” (PLoS ONE, 2012).
